In assay [1] the target is wt^Sd (Scalloped 223–440), N-biotinylated-Avitagged (Drosophila melanogaster) (UniProt P30052). The assay can be described thus: SPR; N-biotinylated-Avitagged Sd (wild type or mutant) immobilised on sensor chips; Yki or Vg fragment as analyte; Kd at equilibrium by a standard SPR method.
Assay [2] has as its target N-terminally V5-tagged Asp272Ala^TEAD4 (full length) (human) (UniProt Q15561). Nature of the assay: co-IP; V5-TEAD4 and (FLAG)3-VGLL2 co-transfected into HEK293FT YAP/TAZ double knockout cells; V5 immunoprecipitation, anti-FLAG Western blot; similar results in wild-type HEK293FT cells. In general terms: In western blotting, separated proteins are transferred to a membrane and probed.

The target in assay [3] is TEAD4 (protein of the SPR and TR-FRET assays) (human). Nature of the assay: SPR; peptides against TEAD4; Kd at equilibrium; peptide stocks in DMSO or in acetonitrile:(water + 1 mM TCEP).
Assay [4] shares this target. Nature of the assay: FRET or BRET; TR-FRET assay with TEAD4; potency (IC50) of peptides; methodology in Fig. S8. A general note: Bioluminescence resonance energy transfer reports proximity on the nanometre scale.
The next assay addresses TEAD4 (Homo sapiens) (UniProt Q15561). The conditions noted are these: cited from earlier work.
For assay [5], the target named is T1, wt^Sd (Scalloped 223–440), N-biotinylated-Avitagged (Drosophila melanogaster, UniProt P30052 223-440, biotin on the Avi-tag; acylated (incubated with myristoyl coenzyme A; purified as a mixture of acylated and non-acylated proteins)).
T1 construct: Immobilised on SPR sensor chips by the biotinylated Avi-tag; also called Sd^223–440; source: E. coli BL21(DE3) with a BirA plasmid, purified (HisTrap, HRV 3C cleavage, Superdex 75); not shown: His6, N-terminal, cleaved; Avi-tag, N-terminal, kept
T1 sequence (looked up): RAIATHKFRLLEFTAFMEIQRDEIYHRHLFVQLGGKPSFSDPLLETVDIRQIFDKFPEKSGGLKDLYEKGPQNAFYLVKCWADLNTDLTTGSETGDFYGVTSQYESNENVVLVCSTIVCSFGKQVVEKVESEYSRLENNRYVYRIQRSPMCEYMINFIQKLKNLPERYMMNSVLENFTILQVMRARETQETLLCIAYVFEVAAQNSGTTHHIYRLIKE
The assay can be described thus: SPR; N-biotinylated-Avitagged Sd (wild type or mutant) immobilised on sensor chips; Yki or Vg fragment as analyte; Kd at equilibrium by a standard SPR method. The following applies: both partners purified. A general note: SPR reads the build-up and loss of mass on a sensor chip optically.

The target of assay [6] is T1, wt^Sd (Scalloped 223–440), …. Nature of the assay: SPR; N-biotinylated-Avitagged Sd (wild type or mutant) immobilised on sensor chips; Kd by kinetic titration (Kd^KT). The following applies: both partners purified.
In assay [7] the target is T2, Asp276Ala^Sd (Scalloped 223–440), biotinylated Avi-tagged (Drosophila melanogaster, UniProt P30052 223-440, Asp276Ala, biotin on the Avi-tag; incubated with myristoyl coenzyme A).
T2 construct: Scalloped (Sd), Drosophila melanogaster, UniProt P30052, amino acids 223–440, with Asp276Ala; also called Asp246Ala^Sd (as printed in two sentences); source: E. coli BL21(DE3) with a BirA plasmid, purified (HisTrap, HRV 3C cleavage, Superdex 75); not shown: His6, N-terminal, cleaved; Avi-tag, N-terminal, kept
T2 sequence (looked up): T1 sequence (looked up) with D54A
The assay can be described thus: SPR; N-biotinylated-Avitagged Sd (wild type or mutant) immobilised on sensor chips; Yki or Vg fragment as analyte; Kd at equilibrium by a standard SPR method. The following applies: both partners purified.

In assay [8] the target is T3, Tyr435His^Sd (Scalloped 223–440), biotinylated Avi-tagged (Drosophila melanogaster, UniProt P30052 223-440, Tyr435His, biotin on the Avi-tag; incubated with myristoyl coenzyme A).
T3 construct: Scalloped (Sd), Drosophila melanogaster, UniProt P30052, amino acids 223–440, with Tyr435His; source: E. coli BL21(DE3) with a BirA plasmid, purified (HisTrap, HRV 3C cleavage, Superdex 75); not shown: His6, N-terminal, cleaved; Avi-tag, N-terminal, kept
T3 sequence (looked up): T1 sequence (looked up) with Y213H
Described as above. The conditions noted are these: both partners purified.

The target of assay [9] is T2, Asp276Ala^Sd (Scalloped 223–440), …. Nature of the assay: SPR; N-biotinylated-Avitagged Sd (wild type or mutant) immobilised on sensor chips; Kd by kinetic titration (Kd^KT). The conditions noted are these: both partners purified.
Assay [10] has as its target T3, Tyr435His^Sd (Scalloped 223–440), …. The assay is described as above. The conditions noted are these: both partners purified.
Assay [11] deals with TEAD4 (protein of the SPR and TR-FRET assays) (human). Nature of the assay: SPR; peptides against TEAD4; Kd at equilibrium; peptide stocks in DMSO or in acetonitrile:(water + 1 mM TCEP). This is another data set of the same source.

Positions count from the first letter of the chain named. Like-named read-outs stand apart in the source and are kept apart here.

The term Kd denotes the constant that tells how readily two partners part at equilibrium. Broadly, the IC50 is the midpoint of a concentration-inhibition curve.

Sequence of TEAD4 (Homo sapiens) (Q15561 whole entry): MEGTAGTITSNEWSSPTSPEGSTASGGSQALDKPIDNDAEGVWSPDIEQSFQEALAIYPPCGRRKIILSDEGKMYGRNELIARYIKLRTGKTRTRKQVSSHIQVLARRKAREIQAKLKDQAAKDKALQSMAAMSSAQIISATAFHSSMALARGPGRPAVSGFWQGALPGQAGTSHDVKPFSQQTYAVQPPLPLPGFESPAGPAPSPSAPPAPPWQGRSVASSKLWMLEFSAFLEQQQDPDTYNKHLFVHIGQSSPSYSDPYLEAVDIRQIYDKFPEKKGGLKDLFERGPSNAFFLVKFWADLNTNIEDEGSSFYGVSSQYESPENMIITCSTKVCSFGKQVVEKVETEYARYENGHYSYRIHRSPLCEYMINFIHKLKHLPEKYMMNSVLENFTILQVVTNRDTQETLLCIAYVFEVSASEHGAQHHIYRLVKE
Sequence of N-terminally V5-tagged Asp272Ala^TEAD4 (full length) (human) (Q15561 whole entry D272A): as the sequence (Q15561 whole entry) above, with D272A counted along it

Molecule “Vg^298–337 (from UniProt Q26366 298-337) (peptide)” came in with a Kd in assay [1] of 61 nM.

With “(FLAG)3-delΩ^VGLL2 (full length with the Ω-loop deleted) (from UniProt Q8N8G2-1 1-317) (natural protein)”, the fold reduction of co-immunoprecipitation against wt^TEAD4 with wt^VGLL2 in [2] is 2 fold.

For the molecule “YAP^85–99 (from UniProt P46937 85-99) (peptide)”, the Kd in [3] came out at 58000 nM. Besides, the IC50 in [4] worked out at 98000 nM.

Consider “Flyman (hybrid peptide: β-strand:α-helix and Ω-loop of VGLL2 connected by the linker from Vg)”, for which the Kd in [3] worked out at 4.3 nM.

As to VGLL1 27-51 (from UniProt Q99990), the Kd in the assay with TEAD4 (Homo sapiens) is 160 nM.

B1: VGLL2^135–149 (peptide)
peptide: Ac-PMSQRSFPASFWNSA-NH2
In the case of B1, in [4], the IC50 was found to be 133000 nM.

B2: VGLL2^85–108 (peptide)
peptide: Ac-CVLFTYFQGDISSVVDEHFSRALS-NH2
With B2, the dissociation constant Kd in assay [3] was 590 nM. Further, the IC50 in [4] amounted to 340 nM.

B3: Yki^41–79 (peptide, UniProt Q45VV3 41-79, looked up)
peptide: Ac-TDDNLQALFDSVLNPGDAKRPLQLPLRMRKLPNSFFTPP-NH2
notes: Yorkie (Yki), Drosophila melanogaster, UniProt Q45VV3, residues 41–79 (lacks the putative β-strand); source: synthetic peptide, bought: Biosynthan
B3: the Kd in [5] turned out to be 69 nM.

B4: Yki^30–146 (domain or fragment, Drosophila melanogaster, UniProt Q45VV3 30-146, looked up)
chain: SNNLVVRVNQDTDDNLQALFDSVLNPGDAKRPLQLPLRMRKLPNSFFTPPAPSHSRANSADSTYDAGSQSSINIGNKASIVQQPDGQSPIAAIPQLQIQPSPQHSRLAIHHSRARSS
notes: Yorkie (Yki), Drosophila melanogaster, UniProt Q45VV3, amino acids 30–146; also called Yorkie 30–146; source: E. coli (BL21(DE3) and NiCo21(DE3) are both named), purified (HisTrap, HRV 3C cleavage, Superdex 75); not shown: His-tag, N-terminal, cleaved; strep-tagII, N-terminal, cleaved; rubredoxin, N-terminal, cleaved
On to B4, for which the dissociation constant Kd in [5] was 13 nM; in [6] it was 13 nM; in assay [7] it was 5000 nM; in assay [8], 13000 nM.

B5: Vg^323–337 (peptide)
peptide: Ac-PMSNRNFPPSFWNSN-NH2
Take B5: the half-inhibitory concentration (IC50) in [4] is 160000 nM.

B6: Vg^263–382 (domain or fragment, Drosophila melanogaster, UniProt Q26366 263-382, looked up)
chain: ETPMGSGGGGLAGSGQGQAQYLSASCVVFTNYSGDTASQVDEHFSRALNYNNKDSKESSSPMSNRNFPPSFWNSNYVHPIPAPTHHQVSDLYGTATDTGYATDPWVPHAAHYGSYAHAAH
notes: Vestigial (Vg), Drosophila melanogaster, UniProt Q26366, amino acids 263–382; also called Vestigial 263–382; source: E. coli (BL21(DE3) and NiCo21(DE3) are both named), purified (HisTrap, HRV 3C cleavage, Superdex 75); not shown: His-tag, N-terminal, cleaved; strep-tagII, N-terminal, cleaved; rubredoxin, N-terminal, cleaved
On to B6, for which the Kd in assay [9] is 5.5 nM; in [10], 24 nM; in assay [5], below 2 nM; in assay [6], 0.38 nM.

B7: Yki^31–79 (peptide, UniProt Q45VV3 31-79, looked up)
peptide: Ac-NNLVVRVNQDTDDNLQALFDSVLNPGDAKRPLQLPLRMRKLPNSFFTPP-NH2
notes: Yorkie (Yki), Drosophila melanogaster, UniProt Q45VV3, residues 31–79; only Yki 30–146 and Vg 263–382 are described as recombinant; source: synthetic peptide, bought: Biosynthan
As for B7, the Kd in assay [5] is 23 nM.

B8: VGLL2^85–149 (peptide)
peptide: Ac-CVLFTYFQGDISSVVDEHFSRALSQPSSYSPSCTSSKAPRSSGPWRDCSFPMSQRSFPASFWNSA-NH2
Turning to B8, in assay [3], the Kd worked out at 34 nM. This molecule also registered an IC50 in assay [4] of 6.3 nM.

B9: Vg^288–311 (peptide, UniProt Q26366 288-311, looked up)
peptide: Ac-CVVFTNYSGDTASQVDEHFSRALN-NH2
notes: Vestigial (Vg), Drosophila melanogaster, UniProt Q26366, residues 288–311 (TONDU domain); also called TONDU domain of Vg; β-strand:α-helix region of Vg; source: synthetic peptide, bought: Biosynthan
B9: the Kd in assay [5] was found to be 291 nM.

B10: Vg^288–337 (peptide, UniProt Q26366 288-337, looked up)
peptide: Ac-CVVFTNYSGDTASQVDEHFSRALNYNNKDSKESSSPMSNRNFPPSFWNSN-NH2
notes: source: synthetic peptide, bought: Biosynthan
For the molecule B10, the Kd in assay [3] was 3.1 nM; in assay [11], 4.1 nM; in [5], below 2 nM; in assay [6], 1.6 nM.

These data come from publication PMC7566471, “A new perspective on the interaction between the Vg/VGLL1-3 proteins and the TEAD transcription factors” (Scientific Reports, 2020).
